{"source": "paper PMC8213813", "about": "“Mechanism of genome instability mediated by human DNA polymerase mu misincorporation”", "binders": {"B1": {"name": "2-nt gapped DNA, templating TT (crystallization) (dsDNA)", "DNA 1": "CGGCTTTACG", "DNA 2": "CGTA", "DNA 3": "GCCG", "modifications": "5'-phosphate on downstream primer"}, "B2": {"name": "1-nt gapped DNA after dGTP insertion (T:G product) (dsDNA)", "DNA 1": "CGGCTTACG", "DNA 2": "CGTAG", "DNA 3": "GCCG", "modifications": "5'-phosphate on downstream primer"}, "B3": {"name": "1-nt gapped DNA, templating T (crystallization) (dsDNA)", "DNA 1": "CGGCTTACG", "DNA 2": "CGTA", "DNA 3": "GCCG", "modifications": "5'-phosphate on downstream primer"}}, "key": {"[1]": {"molecular_target": "T1, DNA polymerase mu core domain (WT) (Homo sapiens, UniProt Q9NP87 136-494, del398-410)", "T1 sequence (Q9NP87 other isoform, or with tags, fused parts or gaps del398-410)": "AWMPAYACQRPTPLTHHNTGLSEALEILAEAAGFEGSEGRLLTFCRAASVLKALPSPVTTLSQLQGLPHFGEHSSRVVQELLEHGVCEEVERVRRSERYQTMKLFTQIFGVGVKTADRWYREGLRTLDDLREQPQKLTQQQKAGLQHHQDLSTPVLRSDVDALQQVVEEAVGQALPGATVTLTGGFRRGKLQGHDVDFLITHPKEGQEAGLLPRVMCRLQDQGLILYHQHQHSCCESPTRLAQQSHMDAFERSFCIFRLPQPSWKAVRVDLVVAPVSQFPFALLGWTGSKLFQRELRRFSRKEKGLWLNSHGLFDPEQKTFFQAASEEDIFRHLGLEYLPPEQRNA", "test": "X-ray crystallography; dGMPNPP, 10 mM Mg2+ (Complex 1); Crystals: protein (~7 mg/ml in 25 mM Tris/HCl pH 7.5, 100 mM KCl, 1 mM DTT) with DNA at 1:1.5; binary: 0.1 M sodium citrate pH 5.5, 18% 2-propanol, PEG4000; ternary: pH 6.5-8.0, PEG3350 or PEG10000; nucleotide/metal soak 4 h at 4 °C", "details": "protein: recombinant; tags: His (pET28a, nickel purified); template 10 nt + upstream primer 4 nt + downstream primer 4 nt; 2-nt gap; blunt outer ends"}, "[2]": {"molecular_target": "T2, DNA polymerase mu core domain K438A/Q441A (Homo sapiens, UniProt Q9NP87 136-494, K438A;Q441A;del398-410)", "T2 sequence (Q9NP87 other isoform, or with tags, fused parts or gaps K438A;Q441A;del398-410 | K438A Q441A K438A Q441A)": "as the sequence (Q9NP87 other isoform, or with tags, fused parts or gaps del398-410) above, with K290A, Q293A counted along it", "test": "X-ray crystallography; post-insertion; second dGTP (10 mM soak), 10 mM Mg2+, Na+; Crystals: protein (~7 mg/ml in 25 mM Tris/HCl pH 7.5, 100 mM KCl, 1 mM DTT) with DNA at 1:1.5; binary: 0.1 M sodium citrate pH 5.5, 18% 2-propanol, PEG4000; ternary: pH 6.5-8.0, PEG3350 or PEG10000; nucleotide/metal soak 4 h at 4 °C", "details": "protein: recombinant; tags: His (pET28a, nickel purified); template 9 nt + extended primer 5 nt + downstream primer 4 nt; nascent dG displaced by second dGTP"}, "[3]": {"molecular_target": "DNA polymerase mu core domain Q441A (Homo sapiens, UniProt Q9NP87 136-494, Q441A;del398-410)", "sequence (Q9NP87 other isoform, or with tags, fused parts or gaps Q441A;del398-410 | Q441A Q441A)": "as the sequence (Q9NP87 other isoform, or with tags, fused parts or gaps del398-410) above, with Q293A counted along it", "test": "X-ray crystallography; dGMPNPP, 10 mM Mg2+ (Complex 4); Crystals: protein (~7 mg/ml in 25 mM Tris/HCl pH 7.5, 100 mM KCl, 1 mM DTT) with DNA at 1:1.5; binary: 0.1 M sodium citrate pH 5.5, 18% 2-propanol, PEG4000; ternary: pH 6.5-8.0, PEG3350 or PEG10000; nucleotide/metal soak 4 h at 4 °C", "details": "protein: recombinant; tags: His (pET28a, nickel purified); template 9 nt + upstream primer 4 nt + downstream primer 4 nt; 1-nt gap; blunt outer ends"}, "[4]": {"molecular_target": "T1, DNA polymerase mu core domain (WT)", "test": "X-ray crystallography; binary; Mg2+; Crystals: protein (~7 mg/ml in 25 mM Tris/HCl pH 7.5, 100 mM KCl, 1 mM DTT) with DNA at 1:1.5; binary: 0.1 M sodium citrate pH 5.5, 18% 2-propanol, PEG4000; ternary: pH 6.5-8.0, PEG3350 or PEG10000; nucleotide/metal soak 4 h at 4 °C", "details": "protein: recombinant; tags: His (pET28a, nickel purified); template 9 nt + upstream primer 4 nt + downstream primer 4 nt; 1-nt gap; blunt outer ends"}, "[5]": {"molecular_target": "T2, DNA polymerase mu core domain …", "test": "X-ray crystallography; dGMPNPP, 10 mM Mg2+ (Complex 5); Crystals: protein (~7 mg/ml in 25 mM Tris/HCl pH 7.5, 100 mM KCl, 1 mM DTT) with DNA at 1:1.5; binary: 0.1 M sodium citrate pH 5.5, 18% 2-propanol, PEG4000; ternary: pH 6.5-8.0, PEG3350 or PEG10000; nucleotide/metal soak 4 h at 4 °C", "details": "protein: recombinant; tags: His (pET28a, nickel purified); template 9 nt + upstream primer 4 nt + downstream primer 4 nt; 1-nt gap; blunt outer ends"}}}
{"binder": "B1", "values": [{"measurement": "binding result", "setting": "[1]", "value": "binds"}]}
{"binder": "B2", "values": [{"measurement": "binding result", "setting": "[2]", "value": "binds"}]}
{"binder": "B3", "values": [{"measurement": "binding result", "setting": "[3]", "value": "binds"}, {"measurement": "binding result", "setting": "[4]", "value": "binds"}, {"measurement": "binding result", "setting": "[5]", "value": "binds"}]}
